# From US12083165B2, “Thymosin alpha 1 for use in treatment of cystic fibrosis” (SciClone Pharmaceuticals International (SG) PTE. LTD., priority 2015, dated 2024)
# Columns and labels:
# ΔF508 CFTR = ΔF508 CFTR (Homo sapiens, UniProt P13569, DEL508-508); experiment: Immunoblot of purified plasma membrane (PM) fraction for CFTR; assay type: cell-based; conditions: 100 ng/ml Tα1, plasma membrane fraction
# Description: CFTR Immunoblot Analysis. Immunoblot techniques using the anti-CFTR antibody (clone CF3, Abcam) were used to measure CFTR maturation in FRT, HEK-293, or HBE cells expressing CFTR or F508del-CFTR (34). After incubation, cells were harvested in ice-cold D-PBS solution (without calcium and magnesium) and pelleted at 1,000×g at 4° C. Cell pellets were lysed in 1% Nonidet P-40, 0.5% sodium deoxycholate, 200 mM NaCl, 10 mM Tris, pH 7.8, and 1 mM EDTA plus protease inhibitor mixture (1:250; Roche) for 30 min on ice. Lysates were spun for 10 min at 10,000×g at 4° C. to pellet nuclei and insoluble material. Approximately 12 μg total protein was heated in Laemmli buffer with 5% β-mercaptoethanol at 37° C. for 5 min and loaded onto a 3% to 8% Tris-acetate gel (Invitrogen). […] LiteAblotPlus chemiluminescence substrate (Euroclone S.p.A.), using ChemiDoc™ XRS+ Imagig system (Bio-Rad Laboratories) and blot quantification was obtained by densitometry image analysis using Image Lab 3.1.1 software (Bio-Rad).
# The SV40 transformed CF airway epithelial cell line (CFBE41o−), homozygous for the ΔF508-CFTR mutation, was used (32). […] CFTR bands were quantified by densitometry and expressed as the C/B ratio. […] Densitometric measurement of the CFTR (C band) at the PM was expressed as CFTR PM/CFTR total ratio (Panel C, FIG. 2).
# CFTR = biological target: T1, CFTR (Homo sapiens, UniProt P13569, DEL508-508); experiment: CFTR protein expression (band C) in HBE cells from CF patients; assay type: cell-based; conditions: 100 ng/ml Tα1 for 24 hours, cells from 5 CF patients
# T1 construct: endogenous in cells; host or cells: primary HBE cells from lung transplants of CF patients
# Description: Cells. Cell Lines and Cell Culture—Human bronchial epithelial (HBE) cells, homozygous for the […] mutation and its isogenic wild-type were obtained from lung transplants (CF patients) or lung resections (non-CF patients) (kindly provided by L J Galietta within the Italian Cystic Fibrosis Foundation). Cells were maintained at 37° C. in a humidified incubator in an atmosphere containing 5% CO2, and the experiments were done 5 days after plating (21, 22). Stable lentiviral-based transduction of the parental CFBE41o− cells (ΔF508/ΔF508), originally immortalized and characterized by Dr. D. Gruenert and co-workers (32) with either WT-CFTR or ΔF508-CFTR, was performed by Tranzyme, Inc. (Birmingham, AL). […]
# CFTR Immunoblot Analysis. […] LiteAblotPlus chemiluminescence substrate (Euroclone S.p.A.), using ChemiDoc™ XRS+ Imagig system (Bio-Rad Laboratories) and blot quantification was obtained by densitometry image analysis using Image Lab 3.1.1 software (Bio-Rad).
# The SV40 transformed CF airway epithelial cell line (CFBE41o−), homozygous for the ΔF508-CFTR mutation, was used (32). […] CFTR bands were quantified by densitometry and expressed as the C/B ratio. […]
# Sequence of ΔF508 CFTR (P13569 with tags, fused parts or gaps DEL508-508): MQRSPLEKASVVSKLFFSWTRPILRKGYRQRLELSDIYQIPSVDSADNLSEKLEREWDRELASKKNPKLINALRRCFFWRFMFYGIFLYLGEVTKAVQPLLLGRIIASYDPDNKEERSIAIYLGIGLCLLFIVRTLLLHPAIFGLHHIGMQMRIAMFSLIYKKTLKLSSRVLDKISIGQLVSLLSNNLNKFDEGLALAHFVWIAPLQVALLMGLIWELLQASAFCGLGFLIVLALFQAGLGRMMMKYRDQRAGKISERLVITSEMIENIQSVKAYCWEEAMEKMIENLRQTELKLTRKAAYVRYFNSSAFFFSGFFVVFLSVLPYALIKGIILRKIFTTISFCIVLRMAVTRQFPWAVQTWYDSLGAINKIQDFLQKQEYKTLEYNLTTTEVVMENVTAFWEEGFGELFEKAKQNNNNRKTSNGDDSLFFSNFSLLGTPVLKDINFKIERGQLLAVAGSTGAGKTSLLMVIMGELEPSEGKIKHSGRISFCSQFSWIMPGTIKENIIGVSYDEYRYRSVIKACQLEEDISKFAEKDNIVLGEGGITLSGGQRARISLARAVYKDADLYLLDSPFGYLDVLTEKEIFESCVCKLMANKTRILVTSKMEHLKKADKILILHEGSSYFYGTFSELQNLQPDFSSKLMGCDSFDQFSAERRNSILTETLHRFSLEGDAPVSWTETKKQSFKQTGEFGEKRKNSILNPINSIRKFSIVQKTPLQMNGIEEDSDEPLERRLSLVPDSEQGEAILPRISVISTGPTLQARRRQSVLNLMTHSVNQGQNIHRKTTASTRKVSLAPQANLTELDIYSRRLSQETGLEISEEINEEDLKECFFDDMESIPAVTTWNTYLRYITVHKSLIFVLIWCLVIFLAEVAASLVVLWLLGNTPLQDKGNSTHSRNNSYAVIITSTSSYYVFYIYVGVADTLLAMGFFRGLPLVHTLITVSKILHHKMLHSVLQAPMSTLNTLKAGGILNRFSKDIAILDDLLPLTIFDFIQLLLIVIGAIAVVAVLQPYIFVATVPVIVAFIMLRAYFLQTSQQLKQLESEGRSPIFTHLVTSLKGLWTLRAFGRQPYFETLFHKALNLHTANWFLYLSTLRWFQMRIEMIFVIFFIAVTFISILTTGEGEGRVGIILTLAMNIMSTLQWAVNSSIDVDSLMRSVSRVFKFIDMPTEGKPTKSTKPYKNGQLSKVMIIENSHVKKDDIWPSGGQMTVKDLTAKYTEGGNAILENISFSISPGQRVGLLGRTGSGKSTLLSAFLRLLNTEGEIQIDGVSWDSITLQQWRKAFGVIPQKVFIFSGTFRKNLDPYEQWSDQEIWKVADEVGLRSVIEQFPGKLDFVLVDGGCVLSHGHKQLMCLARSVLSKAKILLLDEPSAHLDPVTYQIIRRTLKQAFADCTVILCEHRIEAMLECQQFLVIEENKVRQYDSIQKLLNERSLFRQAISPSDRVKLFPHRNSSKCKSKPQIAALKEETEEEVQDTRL
# T1 sequence (P13569 with tags, fused parts or gaps DEL508-508): as above
substance,measurement,setting,value
"Ac-Ser-Asp-Ala-Ala-Val-Asp-Thr-Ser-Ser-Glu-Ile-Thr-Thr-Lys-Asp-Leu-Lys-Glu-Lys-Lys-Glu-Val-Val-Glu-Glu-Ala-Glu-Asn-O (Ac-SDAAVDTSSEITTKDLKEKKEVVEEAEN-OH; not fully specified; printed as Ac-Ser-Asp-Ala-Ala-Val-Asp-Thr-Ser-Ser-Glu-Ile-Thr-Thr-Lys-Asp-Leu-Lys-Glu-Lys-Lys-Glu-Val-Val-Glu-Glu-Ala-Glu-Asn-O; listed as Homo sapiens) [Tα1, naturally occurring polypeptide of 28 amino acid; supplied as purified sterile, lyophilized, acetylated polypeptide]",expression of ΔF508 CFTR at PM (CFTR PM/CFTR total ratio),ΔF508 CFTR,increased
same,CF patients whose HBE cells showed increased expression of CFTR (band C),CFTR,3 patients
